Results as given in article doi:10.1101/2020.12.31.424868 (bioRxiv, 2020).

B1: mAb H5.28, hybridoma-generated IgG (antibody, V domains shown)
VH: EVQLVESGGGLVQPGGSLRLSCAASGFTFSTYWMTWVRQAPGKGLEWVANINQDGGEKYFVDSVKGRFTISRDNAKNSLFLQMNTLRAEDTAVYYCARGFLERLLLGRQGAYYYGMDVWGQGTTVTVSS
VL: DIQMTQSPSSLSASVGDRVSMTCRASQIISSSLNWYQQKPGKAPKLLIYAASNLQSGVPSRFSGSGSGTDFTLTISSLQPEDFATYYCQQSYSTPPELTFGGGTKVEIK
B2: mAb H5.31, hybridoma-generated IgG (antibody, V domains shown)
VH: EVQLVQSGGGLVQPGGSLRLSCEASRFTSSSYWITWVRQAPGKGLEWVANIKQDGSEKYFVDSVKGRFTISRDNASNSLYLQMSSLRAEDTAVYYCARGFLERLLLGRQGAYYYGMDVWGQGTTVTVSS
VL: DIVMTQSPFSLSASVGDRVTMTCRASQSISSSLNWYQQKPGKAPKLLIYAASNLQSGVPSRFSGSGSGTDFTLTISSLQPEDFATYYCQQSYTMPPELTFGGGTKVEIK
B3: H5.28 Fab (recombinant) (Fab, V domains shown)
VH: EVQLVESGGGLVQPGGSLRLSCAASGFTFSTYWMTWVRQAPGKGLEWVANINQDGGEKYFVDSVKGRFTISRDNAKNSLFLQMNTLRAEDTAVYYCARGFLERLLLGRQGAYYYGMDVWGQGTTVTVSS
VL: DIQMTQSPSSLSASVGDRVSMTCRASQIISSSLNWYQQKPGKAPKLLIYAASNLQSGVPSRFSGSGSGTDFTLTISSLQPEDFATYYCQQSYSTPPELTFGGGTKVEIK
B4: mAb 5J8 (antibody, V domains shown)
VH: EVQLVESGPGLVKPSDILSLTCAVSGYSISSNYYWGWIRQPPGKGLEWIGSIYHSGSTYYKPSLESRLGISVDTSKNQFSLKLSFVSAADTAVYYCARHVRSGYPDTAYYFDKWGQGTLVTVSS
VL: SYVLTQPPSVSVAPGETARISCGGNNIGTKVLHWYQQTPGQAPVLVVYDDSDRPSGIPERFSGSNSGNTATLTISRVEVGDEADYYCQVWDISTDQAVFGGGTKLTVL
B5: FluA-151 (antibody, V domains shown)
VH: QELLVESGGGVVQPGRSLRLSCVGSGFTFRTYGMHWVRQAPGRRPEWVALISNDGSREYYADSVKGRFTISRDNSRNTLYLQMNSLTVADTAVYYCAKFIPDPNYGEFYFHHWGQGTLVTVSS
VL: DIQMTQSPSSLSASVEDRVTITCRASQSINKYLNWYQQKPGKAPKLLIYAADNLQDAVPSRFSGSGSGTDFTLTITGLHPDDLATYYCQQSYTIPPTFGHGTKVEIK
B6: FluA-20 (antibody, V domains shown)
VH: QVQLEESGPGLVKPSETLSLTCSVSGVSVTSDIYYWTWIRQPPGKGLEWIGYIFYNGDTNYNPSLKSRVTMSIDTSKNEFSLRLTSVTAADTAVYFCARGTEDLGYCSSGSCPNHWGQGTLVTVSS
VL: DIVMTQSPSSLSASIGDRVTITCRPSQNIRSFLNWFQHKPGKAPKLLIYAASNLQSGVPSRFSGSGSGTEFTLTIRSLQPEDFATYYCQQSYNTPPTFGQGTKVEIK

What was measured:
IN/05 HA = IN/05 HA (Influenza A virus A/Indonesia/5/2005 …, UniProt C5MRF2, strain); assay: ELISA
[1] = target: head domain of VN/04 HA (A/Vietnam/1203/2004 H5N1), monomeric (Influenza A virus A/Vietnam/1203/2004 …, strain); assay: HDX-MS
[2] = target: monomeric HA head domain from H1 A/California/07/2009 (influenza A virus A/California/07/2009 …, UniProt C3W5X2); assay: BLI
[3] = target: trimeric recombinant HA from H1 A/California/04/2009 (Influenza A virus A/California/04/2009 …, UniProt C3W5S1); assay: BLI
[4] = target: HA from A/New York/107/2003 (Influenza A virus A/New York/107/2003 …, UniProt B2LVD7, strain); assay: ELISA

Binder	binding result (IN/05 HA)	binding result [4]	also measured
B1	binds		
B2	binds		
B3			binding result [1]: binds
B4			binding result [2]: binds; binding result [3]: binds
B5		no binding	
B6		no binding	
